{"source": "IntAct's records for PubMed 24291004", "parents": {"B1": {"name": "Glucocorticoid receptor (Homo sapiens), P04150 (parent)", "chain": "MDSKESLTPGREENPSSVLAQERGDVMDFYKTLRGGATVKVSASSPSLAVASQSDSKQRRLLVDFPKGSVSNAQQPDLSKAVSLSMGLYMGETETKVMGNDLGFPQQGQISLSSGETDLKLLEESIANLNRSTSVPENPKSSASTAVSAAPTEKEFPKTHSDVSSEQQHLKGQTGTNGGNVKLYTTDQSTFDILQDLEFSSGSPGKETNESPWRSDLLIDENCLLSPLAGEDDSFLLEGNSNEDCKPLILPDTKPKIKDNGDLVLSSPSNVTLPQVKTEKEDFIELCTPGVIKQEKLGTVYCQASFPGANIIGNKMSAISVHGVSTSGGQMYHYDMNTASLSQQQDQKPIFNVIPPIPVGSENWNRCQGSGDDNLTSLGTLNFPGRTVFSNGYSSPSMRPDVSSPPSSSSTATTGPPPKLCLVCSDEASGCHYGVLTCGSCKVFFKRAVEGQHNYLCAGRNDCIIDKIRRKNCPACRYRKCLQAGMNLEARKTKKKIKGIQQATTGVSQETSENPGNKTIVPATLPQLTPTLVSLLEVIEPEVLYAGYDSSVPDSTWRIMTTLNMLGGRQVIAAVKWAKAIPGFRNLHLDDQMTLLQYSWMFLMAFALGWRSYRQSSANLLCFAPDLIINEQRMTLPCMYDQCKHMLYVSSELHRLQVSYEEYLCMKTLLLLSSVPKDGLKSQELFDEIRMTYIKELGKAIVKREGNSSQNWQRFYQLTKLLDSMHEVVENLLNYCFQTFLDKTMSIEFPEMLAEIITNQIPKYSNGNIKKLLFHQK"}}}
{"variants_of": "B1", "conditions": "with akt1_human AKT1, P31749"}
{"variant": "S134A", "effect of a mutation on the interaction": "disrupting interaction"}
